Measured values from paper PMC2840394.

Biological target: AL-12 variable domain (VL), amyloidogenic immunoglobulin kappa light chain of the κI O18/O8 germline (human (patient AL-12))
Assay: crystal structure

- stoichiometry N: 2
Substance: AL-12 variable domain (VL), amyloidogenic immunoglobulin kappa light chain of the κI O18/O8 germline (domain or fragment)
